Results as given in publication PMC6559209.

Target: YlHD, hydrophilic domain of the Yarrowia lipolytica group 3 LEA protein (Yarrowia lipolytica)
Assay: MST; HD labelled with RED-NHS at 2 uM; label-free LDH titrated, diluted from 71 uM; binding buffer 20 mM HEPES, 150 mM KCl, pH 7.4 (the legend says phosphate buffer); normal conditions; Monolith NT.115, 20% LED, 60% MST power

Kd: 5.03 µM
Substance: lactate dehydrogenase (LDH) (enzyme)
